Assay results published in patent US20190064177A1, “INCORPORATING COMPETITIVE BINDING INFORMATION INTO MOLECULAR ARRAY ANALYSIS TO GENERATE FUNCTION NETWORKS OF INTERACTIONS” (ARIZONA BOARD OF REGENTS ON BEHALF OF ARIZONA STATE …, priority 2017, published 2019).

What was measured:
[1] = target: Diaphorase; assay: peptide array, 10 uM labeled diaphorase, no FAD
[2] = target: Diaphorase; assay: peptide array, 1 uM labeled diaphorase, no FAD
[3] = target: Diaphorase; assay: peptide array, 10 uM labeled diaphorase, with FAD
[4] = target: Diaphorase; assay: peptide array, 10 uM diaphorase, binding without FAD / with FAD
[5] = target: Diaphorase; assay: peptide array, 1 uM diaphorase, binding without FAD / with FAD
[6] = target: Diaphorase; assay: peptide array, 1 uM labeled diaphorase, with FAD

YNRNAKSSGGSG
fluorescence [1]: 41300
fluorescence [2]: 4010
fluorescence [3]: 18600
noFAD/FAD [4]: 2.23
noFAD/FAD [5]: 2.6
fluorescence [6]: 1550

KEAPGPRFGGSG
fluorescence [1]: 5610
fluorescence [2]: 1070
fluorescence [3]: 5470
noFAD/FAD [4]: 1.03
noFAD/FAD [5]: 0.129
fluorescence [6]: 8280

EDEGLSKFEGGSG
fluorescence [1]: 1220
fluorescence [2]: 561
fluorescence [3]: 1380
noFAD/FAD [4]: 0.885
noFAD/FAD [5]: 0.135
fluorescence [6]: 4170

KNRPYNKDLEDGSG
fluorescence [1]: 2520
fluorescence [2]: 733
fluorescence [3]: 2590
noFAD/FAD [4]: 0.974
noFAD/FAD [5]: 0.142
fluorescence [6]: 5150

RLQYLFKSDGSG
fluorescence [1]: 64300
fluorescence [2]: 5780
fluorescence [3]: 30600
noFAD/FAD [4]: 2.1
noFAD/FAD [5]: 2.94
fluorescence [6]: 1960

YSVDYWYQVDGSG
fluorescence [1]: 19800
fluorescence [2]: 1800
fluorescence [3]: 19200
noFAD/FAD [4]: 1.03
noFAD/FAD [5]: 0.173
fluorescence [6]: 10400

VKDGANKHYWRVSGSG
fluorescence [1]: 20400
fluorescence [2]: 2220
fluorescence [3]: 17800
noFAD/FAD [4]: 1.14
noFAD/FAD [5]: 0.18
fluorescence [6]: 12300

DLDKAFGGSG
fluorescence [1]: 1850
fluorescence [2]: 607
fluorescence [3]: 2140
noFAD/FAD [4]: 0.865
noFAD/FAD [5]: 0.296
fluorescence [6]: 2050

VERASYNLDGSG
fluorescence [1]: 2900
fluorescence [2]: 759
fluorescence [3]: 3370
noFAD/FAD [4]: 0.86
noFAD/FAD [5]: 0.339
fluorescence [6]: 2240

RPLQVQRGGS
fluorescence [1]: 53200
fluorescence [2]: 5410
fluorescence [3]: 41100
noFAD/FAD [4]: 1.3
noFAD/FAD [5]: 0.375
fluorescence [6]: 14400

SVLEGYQAVFGGSG
fluorescence [1]: 6070
fluorescence [2]: 1340
fluorescence [3]: 21500
noFAD/FAD [4]: 0.282
noFAD/FAD [5]: 0.503
fluorescence [6]: 2660

RSHPKHNVGSG
fluorescence [1]: 17000
fluorescence [2]: 1950
fluorescence [3]: 12200
noFAD/FAD [4]: 1.39
noFAD/FAD [5]: 0.504
fluorescence [6]: 3880

QLLQLLFGGSG
fluorescence [1]: 19500
fluorescence [2]: 3230
fluorescence [3]: 53400
noFAD/FAD [4]: 0.366
noFAD/FAD [5]: 0.511
fluorescence [6]: 6310

LAKQNRVEDGSG
fluorescence [1]: 2950
fluorescence [2]: 770
fluorescence [3]: 3700
noFAD/FAD [4]: 0.797
noFAD/FAD [5]: 0.537
fluorescence [6]: 1440

AFYGLELGGSG
fluorescence [1]: 16500
fluorescence [2]: 2260
fluorescence [3]: 36700
noFAD/FAD [4]: 0.45
noFAD/FAD [5]: 0.541
fluorescence [6]: 4180

YVWGLELSGGSG
fluorescence [1]: 17300
fluorescence [2]: 2610
fluorescence [3]: 36300
noFAD/FAD [4]: 0.476
noFAD/FAD [5]: 0.556
fluorescence [6]: 4690

LLGFLGGSG
fluorescence [1]: 26300
fluorescence [2]: 2320
fluorescence [3]: 40300
noFAD/FAD [4]: 0.652
noFAD/FAD [5]: 0.559
fluorescence [6]: 4140

YSALFGLQEDGSG
fluorescence [1]: 8530
fluorescence [2]: 1230
fluorescence [3]: 16900
noFAD/FAD [4]: 0.506
noFAD/FAD [5]: 0.583
fluorescence [6]: 2100

EGYANKLLALFSGSG
fluorescence [1]: 6650
fluorescence [2]: 1030
fluorescence [3]: 10400
noFAD/FAD [4]: 0.639
noFAD/FAD [5]: 0.599
fluorescence [6]: 1730

EAVQKLLFSGSG
fluorescence [1]: 5390
fluorescence [2]: 1460
fluorescence [3]: 17700
noFAD/FAD [4]: 0.304
noFAD/FAD [5]: 0.602
fluorescence [6]: 2420

LDRLGEYQFSGSG
fluorescence [1]: 3000
fluorescence [2]: 709
fluorescence [3]: 7140
noFAD/FAD [4]: 0.419
noFAD/FAD [5]: 0.609
fluorescence [6]: 1160

ELFGALFKGGSG
fluorescence [1]: 12900
fluorescence [2]: 2080
fluorescence [3]: 25300
noFAD/FAD [4]: 0.511
noFAD/FAD [5]: 0.612
fluorescence [6]: 3400

VLSLNQVYSEGSG
fluorescence [1]: 9850
fluorescence [2]: 1670
fluorescence [3]: 21800
noFAD/FAD [4]: 0.452
noFAD/FAD [5]: 0.619
fluorescence [6]: 2710

NVSDLSQFYLSGSG
fluorescence [1]: 6740
fluorescence [2]: 2140
fluorescence [3]: 27800
noFAD/FAD [4]: 0.242
noFAD/FAD [5]: 0.624
fluorescence [6]: 3440

FGKLYQLYNDGSG
fluorescence [1]: 15700
fluorescence [2]: 1910
fluorescence [3]: 34200
noFAD/FAD [4]: 0.46
noFAD/FAD [5]: 0.627
fluorescence [6]: 3050

LKQLFLEGGSG
fluorescence [1]: 8700
fluorescence [2]: 1560
fluorescence [3]: 23500
noFAD/FAD [4]: 0.369
noFAD/FAD [5]: 0.63
fluorescence [6]: 2470

VVQALFDGSG
fluorescence [1]: 9480
fluorescence [2]: 1470
fluorescence [3]: 21200
noFAD/FAD [4]: 0.448
noFAD/FAD [5]: 0.637
fluorescence [6]: 2300
